Key:
[1] = GDH enzymatic assay with NADP^+ as cofactor; type: biochemical; details: for decrease of catalytic efficiency on NADP^+: versus wild type
Procedure: (§1) GDH enzymatic assays. The GDH activity was measured as described in Hilt et al. (Biochimica et biophysica acta 1076(2):298-304 (1991)). The reactions were started by adding the purified protein to the assay mixture containing 35 mM Tris-HCl buffer (pH 8.0), 3 mM NAD^+, NADP^+ or NMN^+ and 140 mM glucose. The absorbance variation at 340 nm was detected by a spectrophotometer at 25° C.

[2] = Protein expression levels of GDH variants; design: species or system Escherichia coli; details: expressed in E. coli
Procedure: Proteins were purified as 6×His tag fusion at the N-terminus. E. coli BL21 (DE3) with plasmids were inoculated into LB medium with 200 mg L^−1 ampicillin. Cells were induced with 0.5 mM IPTG and expressed for 24 hours at 30° C. with shaking at 250 rpm. BM3 cytochrome P450 was extracted with the EMD Millipore™ BugBuste Plus Lysonase Kit and purified using the HisPur™ Ni-NTA Superflow Purification System according to the manufacturer's instructions. Other proteins were purified using His-Spin Protein Miniprep kit (Zymo Research Corporation, CA). The purified proteins were quantified by Bradford assay.

[3] = GDH enzymatic assay with NMN^+ as cofactor; type: biochemical; details: for overall specificity switch towards NMN^+ from NADP^+ / overall specificity switch towards NMN^+ from NAD^+: compared to wild type
Procedure: as §1

[4] = NfsB-GDH coupled cycling assay; type: biochemical; details: NMN^+
Procedure: (§2) Coupled enzymatic biotransformation. All biotransformation reactions were performed in buffer A at 30° C. for 24 hours. Reaction buffer A, modified from that disclosed in Chaparro-Riggers et al., Advanced Synthesis & Catalysis 349(8-9):1521-1531 (2007)), contained 200 mM potassium phosphate buffer (pH 7.5), 1 M NaCl, 300 mM D-glucose, 6 mM NMN^+ (or NADP^+ as the positive control), and substrates. All assays were performed in triplicate, with no proteins or no cofactors added as negative controls. The protein loading for GDH variants was kept at 0.33 mg mL^−1 or 11.7 μM. The various enzymes for biotransformation reactions were added at the concentration of 0.75 mg mL^−1.
(§3) For XenA-GDH coupled cycling assays, the substrates ketoisophorone, citral, or trans-2-hexen-1-al were added at 33 mM, 10 mM, or 50 mM, respectively. […] Conversion was determined via GC-FID with octanol as an internal standard (see below). […] Nitrofurazone conversion was measured spectroscopically at 400 nm and quantification was performed using a standard curve. The initial levels of the above-mentioned substrates were mainly determined by their solubility in the assay buffer. […] The reduction of cytochrome c was measured spectroscopically at 550 nm. and the quantification was performed using extinction coefficient ε550 of 21.1 mM^−1 cm^−1.

[5] = test system: cytochrome c; assay: BM3-GDH coupled cycling assay; type: biochemical; details: BM3 W1046S, NMNH generated in situ
Procedure: as §2, §3

[6] = XenA-GDH coupled cycling biotransformation of ketoisophorone to levodione; type: biochemical
Procedure: as §2
For XenA-GDH coupled cycling assays, the substrates ketoisophorone, citral, or trans-2-hexen-1-al were added at 33 mM, 10 mM, or 50 mM, respectively. For the OYE3-GDH coupled cycling assays, the substrate 4-phenyl-3-butyn-2-one was added at 5 mM. At various time points over 24 hours, 100 μL samples were taken and extracted with 100 μL ethyl acetate. Conversion was determined via GC-FID with octanol as an internal standard (see below). For NfsB-GDH coupled cycling assays, 2 mM nitrofurazone was used as the substrate. Nitrofurazone conversion was measured spectroscopically at 400 nm and quantification was performed using a standard curve. The initial levels of the above-mentioned substrates were mainly determined by their solubility in the assay buffer. For BM3-GDH coupled cycling assays, 50 μM cytochrome c (C2506 Sigma) was used as the substrate. The reduction of cytochrome c was measured spectroscopically at 550 nm. and the quantification was performed using extinction coefficient ε550 of 21.1 mM^−1 cm^−1.
Coupled cycling conditions: All biotransformation reactions were performed in buffer A at 30° C. for 24 hours. Reaction buffer A contained 200 mM potassium phosphate buffer (pH 7.5), 1 M NaCl, 300 mM D-glucose, 6 mM NMN^+. Substrate ketoisophorone was added at 5 g/L. At various time points over 24 hours, 100 μL samples were taken and extracted with 100 μL ethyl acetate. Conversion was determined via GC-FID with octanol as an internal standard (see below).

[7] = GDH enzymatic assay with NAD^+ as cofactor; type: biochemical; details: for decrease of catalytic efficiency on NAD^+: versus wild type
Procedure: as §1

[8] = OYE3-GDH coupled cycling assay; type: biochemical; details: OYE3, NMN^+
Procedure: as §2, §3

[9] = XenA-GDH coupled cycling assay, trans-2-hexen-1-al; type: biochemical; details: 50 mM, 24 hours, NMN^+
Procedure: as §2, §3

[10] = GDH total turnover number (TTN) determination; type: biochemical; details: NMN^+, GDH 0.47 μM, 33 mM ketoisophorone, 96 hours
Procedure: GDH Total Turnover Number (TTN) Determination. Total turnover number (TTN) was determined by the number of moles of product formed divided by the moles of purified GDH added. The assays were performed in reaction buffer A, as shown above, at 30° C. Ketoisophorone (33 mM) was used as the substrate. The reaction was started by spiking purified proteins (0.0132 mg mL^−1 or 0.47 μM for GDH, 0.75 mg mL^−1 for XenA). Samples were taken every 12 hours for 96 hours. The extraction and GC-FID analysis were performed using a similar method as mentioned above.

[11] = XenA-GDH coupled cycling assay, citral; type: biochemical; details: 10 mM citral, 24 hours, NMN^+
Procedure: as §2, §3

B1: I195R-A93K-Y39Q: Bs GDH with I195R, A93K, Y39Q substitutions (SEQ ID NO:6) (protein)
chain: MYPDLKGKVVAITGAASGLGKAMAIRFGKEQAKVVINYQSNKQDPNEVKEEVIKAGGEAVVVQGDVTKEEDVKNIVQTAIKEFGTLDIMINNKGLENPVPSHEMPLKDWDKVIGTNLTGAFLGSREAIKYFVENDIKGNVINMSSVHEVIPWPLFVHYAASKGGIKLMTETLALEYAPKGIRVNNIGPGAINTPRNAEKFADPKQKADVESMIPMGYIGEPEEIAAVAAWLASKEASYVTGITLFADGGMTQYPSFQAGRG
modifications: I195R A93K Y39Q mutant GDH coding sequence
With B1 the Kcat ([1]; cofactor NADP^+) was 4.4 ± 0.034 s⁻¹, the Km ([1]; cofactor NADP^+) was 0.61 ± 0.15 mM and the “decrease of catalytic efficiency on NADP^+” value [1] was 1,600 fold. For the same molecule, the “decrease of catalytic efficiency on NADP^+” value ([1]; listed as GDH Triple) was 38 fold, the Expression level [2] was 25.37 μg protein/ml culture and the “increase in catalytic efficiency over the wild-type enzyme towards NMN^+” value [3] was 1,000 fold. The “improvement in catalytic efficiency over I195R” value ([3]; NMN^+) was 4 fold, the Kcat ([3]; cofactor NMN^+) was 3.1 ± 0.037 s⁻¹ and the Km ([3]; cofactor NMN^+) was 6.1 ± 0.83 mM. For the same molecule, the “overall specificity switch towards NMN^+ from NADP^+” value [3] was 1,600,000 fold, the “overall specificity switch towards NMN^+ from NAD^+” value [3] was 38,000 fold and the “overall specificity switch towards NMN^+ from NADP^+” value ([3]; listed as GDH Triple) was 38,000 fold. For the same molecule, the “overall specificity switch towards NMN^+ from NAD^+” value ([3]; listed as GDH Triple) was 1,600,000 fold, the conversion of nitrofurazone [4] was roughly 92% and the “conversion (reduction) of cytochrome c” value [5] was greater than 99%. The “initial productivity of levodione” value ([6]; NMN^+ as cycling cofactor, XenA in excess, GDH 11.7 μM) was roughly 1.15 µM/s, the initial turnover frequency ([6]; NMN^+, Bs GDH loading 11.7 μM) was roughly 0.10 s⁻¹ and the “improvement of NMN^+-dependent productivity” value ([6]; versus wild type Bs GDH) was 22 fold. The Kcat ([7]; cofactor NAD^+) was 0.41 ± 0.026 s⁻¹, the Km ([7]; cofactor NAD^+) was 3.7 ± 0.93 mM and the “decrease of catalytic efficiency on NAD^+” value [7] was 38 fold. For the same molecule, the “decrease of catalytic efficiency on NAD^+” value ([7]; listed as GDH Triple) was 1,600 fold, the “conversion of 4-phenyl-3-butyne-2-one” value [8] was greater than 99% and the “conversion of trans-2-hexen-1-al” value [9] was roughly 49%. For the same molecule, the “total turnover number (TTN)” value [10] was 39,000 and the conversion of citral [11] was roughly 76%.

Reference: patent publication US12618050B2, “Engineered polypeptides that exhibit increased catalytic efficiency for unnatural cofactors and uses thereof” (The Regents of the University of California, priority 2018, dated 2026)
